Experimental data from US11142588B2, “Polypeptides which bind C-X-C chemokine receptor type 4 (CXCR4) and methods of treating or reducing the risk of fibrosis and cancer” (AdAlta Limited, priority 2015, dated 2021).
“And” between values parts separate entries of the source, which are not always exact repeats. Equal entries are not always repeated.

Tests used:
[1] = Bleomycin mouse model of pulmonary fibrosis; type: in vivo
Excerpt: The optimal dose of Bleomycin is 2 U/mouse and the optimal time for assessing fibrocyte recruitment was confirmed at day 4. At days 4 bronchoalvelolar lavage (BAL) fluids were collected for analysis of SDF-1 concentration. One half of the lung tissue was used to make single cell suspensions of the lung and the cells used for flow cytometry and assayed for CD45+, CXCR4+ and Collagen1+ (fibrocytes). The other half of the lung tissue was Sircol stained for the presence of collagen 1 and RNA will be tested for Col-1, Col-3 and SDF-1.
SDF-1, fibrocytes and collagen deposition were monitored at Day 4. Groups were dosed with the i-body just prior to administration with Bleomycin. One half of the lung tissue was minced and washed in PBS and used to make single cell suspensions of the lung with Collagenase A and dispase treatment. The cells were then used for flow cytometry and assayed for CD45+, CXCR4+ and Collagen1+ fibrocytes. […]

CXCR4 = CXCR4 (Homo sapiens, UniProt P61073); assay: β-arrestin BRET assay, antagonist mode with 100 nM SDF-1; type: cell-based; design: expressed in transfected cells; host or cells: HEK293FT; details: various concentrations
Excerpt: (FIGS. 3A-3F and 14) BRET was used in this study to assess the real-time kinetic profiles resulting from any consequent increase in proximity, building upon the previously validated monitoring of GPCR/β-arrestin interactions utilizing BRET. BRET occurs between a complementary Renilla luciferase (Rluc) variant as donor and green fluorescent protein variant as acceptor. Upon Rluc-catalyzed oxidation of the coelenterazine substrate (such as coelenterazine h for first generation BRET (BRET) or EnduRen for extended BRET (eBRET), energy is transferred to the acceptor if within 10 nm, resulting in acceptor light emission peaking at a characteristic wavelength. BRET (3-arrestin assays were carried out as described previously (See, H. B., Seeber, R. M., Kocan, M., Eidne, K. A. and Pfleger, K. D. (2011) ‘Application of G protein-coupled receptor-heteromer identification technology to monitor beta-arrestin recruitment to G protein-coupled receptor heteromers’, Assay Drug Dev Technol, 9(1), 21-30, 10.1089/adt.2010.0336). CXCR4/Rluc8 cDNA constructs were generated from plasmids containing the respective receptor cDNA tagged with Rluc kindly provided by Aron Chakera (Oxford University, United Kingdom). The β-arrestin 2/Venus cDNA construct was prepared previously from pCS2-Venus kindly provided by Atsushi Miyawaki (RIKEN Brain Science Institute, Wako-city, Japan). BRET technology in cells transiently expressing CXCR4/Rluc8 and β-arrestin2/Venus in the presence of 100 nM SDF-1 agonist was evaluated in the presence of the CXCR4 agonist SDF-1/CXCL12 and the i-bodies. HEK293FT cells were maintained at 37° C., 5% CO2 in Complete Media (Dulbecco's modified Eagle's medium containing 0.3 mg/mL glutamine, 100 IU/mL penicillin, and […] streptomycin; Gibco) supplemented with 10% fetal calf serum (FCS) and […] Geneticin (Gibco). Transfections were carried out 24 h after seeding using Genejuice (Novagen) according to manufacturer's instructions. Cells were harvested with 0.05% Trypsin-EDTA (Gibco). HEK293FT cells were transfected using FuGene6 (Promega). 5 μM coelenterazine h (Promega) in HBSS was used as the luciferase substrate solution. Cells were harvested 24 h post-transfection in HEPES-buffered phenol red-free Complete Medium containing 5% FCS and added to a poly-L-lysine-coated white 96-well plate (Nunc). Dose-response curves were generated using BRET, with medium in the plate being replaced with PBS containing […] coelenterazine h (Molecular Probes) and assays carried out immediately. For these assays, 48 h post-transfection, the plate was incubated at […], 5% CO2 for 2 h with […] EnduRen (Promega) to ensure substrate equilibrium was reached. All BRET measurements were taken at 37° C. using the VICTOR Light plate reader with Wallac 1420 software (PerkinElmer). Filtered light emissions were sequentially measured at 400-475 and 520-540 nm. The BRET signal was calculated by subtracting the ratio of 520-540 nm emission over 400-475 nm emission for a vehicle-treated cell sample from the same ratio for a second aliquot of the same cells treated with agonist (in this instance in the presence of SDF-1 or CXCL12) and i-body (ADCX-99, ADCX-272, ACDX-6, ACDX-306, ADCX-668) at various concentrations. Data are mean±S.E.M. of four independent experiments carried out in duplicate.
Binding of the i-bodies to CXCR4 were examined in a β-Arrestin BRET assay as described in See, Heng B et al (2011) Assay and Drug Development Technologies 9(1):21-30. The i-bodes were examined at ten concentrations with and without 100 nM SDF-1 with the addition of ‘vehicle’ and ‘SDF-1+vehicle’ controls in order to characterise if the i-bodies are agonist or antagonists of CXCR4 activity.

[2] = biological target: T1, human CXCR4 (CXCR4 positive lipoparticles) (Homo sapiens, UniProt P61073); assay: Biacore SPR kinetic binding to immobilised CXCR4 lipoparticles
T1 construct: purchased Integral Molecular LEV-101B
Method: (FIGS. 2A-2C, 5A-5C, 11A-11D, 17A-17B) Kinetic binding analysis of selected i-bodies with immobilized CXCR4 lipoparticles were performed at 25° C. using Biacore T200 instrument (GE Healthcare, Uppsala, Sweden). Streptavidin immobilization was performed in 1×HBS-P+ running buffer (10 mM HEPES, 150 mM NaCl, 0.05% [v/v] Tween-20). […] All binding experiments involving lipoparticles were performed with 1×HBS/BSA (10 mM HEPES, 150 mM NaCl, 1 mg/mL BSA) as instrument running buffer. […] In order to determine binding kinetics, serial dilutions (three-fold) of i-bodies diluted in 1×HBS/BSA were injected over immobilized lipoparticles with the association and dissociation phases monitored for 60 sec and 600 sec, respectively. A control measurement of the instrument running buffer (“zero-buffer” blank) solution was also included for double referencing purposes. Collected experimental data were processed using Scrubber software (www.biologic.com.au). Kinetic parameters (ka=association and kd=dissociation rate constants) and equilibrium dissociation constant (KD=kd/ka) were derived by fitting each set of experimental data to a Langmuir 1:1 binding model. All interaction measurements were performed in triplicate and the derived binding parameters reported as averaged values±standard deviation.

[3] = CXCR4 expressed on lipoparticles (Table 4)
[4] = off-rate, CXCR4 expressed on lipoparticles (Table 3)

T1 sequence (P61073 whole entry): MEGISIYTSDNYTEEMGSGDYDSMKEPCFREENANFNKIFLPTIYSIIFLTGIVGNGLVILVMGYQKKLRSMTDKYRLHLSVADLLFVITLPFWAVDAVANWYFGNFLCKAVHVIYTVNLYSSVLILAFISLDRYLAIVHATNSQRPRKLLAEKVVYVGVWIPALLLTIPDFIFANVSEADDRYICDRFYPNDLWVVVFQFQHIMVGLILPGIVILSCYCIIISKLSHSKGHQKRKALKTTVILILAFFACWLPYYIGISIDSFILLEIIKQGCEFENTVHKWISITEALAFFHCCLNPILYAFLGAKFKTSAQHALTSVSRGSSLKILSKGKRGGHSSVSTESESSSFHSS
Sequence of CXCR4 (P61073 whole entry): as above

Row | Molecule | dissociation rate constant (kd) [2, 4] | also measured
1 | Cc1ccc(=O)n(-c2ccccc2)c1 [Pirfenidone, reference compound] |  | recruitment of fibrocytes into the lungs ([1]; day 4, dose not given): able to block recruitment of fibrocytes; collagen content of the lung (Sircol) ([1]; positive controls, dose not stated): reduction in collagen
2 | ADCX-6: CXCR4 binding i-body, SEQ ID NO: 17 (protein, protein sequence encoding ADCX-6) LQVDIVPSQGEISVGESKFFLCQVAGLTSLEGISWFSPNGEKLTPNQQRISVVWNDDSSSTLTIYNANIDDAGIYKCVVEDHPQYSKMEEATVNVKIFQ |  | β-arrestin activity (CXCR4): some degree of inhibition
3 | AM3-466: affinity matured CXCR4 i-body, SEQ ID NO: 64 (protein, protein sequence encoding AM3-466) LQVDIVPSQGEISVGESKFFLCQVAGSGSHQRISWFSPNGEKLTPNQQRISVVWNDDSSSTLTIYNANIDDAGIYKCVVWRTGAYRHRALVLGEATVNVKIFQ | 0.00784 | Ka [2, 3]: 465000 M⁻¹ s⁻¹ and 426000 M⁻¹ s⁻¹
4 | AM4-239: affinity matured i-body, CDR1 SEQ ID NO: 89, CDR3 SEQ ID NO: 90 (protein) LQVDIVPSQGEISVGESKFFLCQVAGAYSDIRISWFSPNGEKLTPNQQRISVVWNDDSSSTLTIYNANIDDAGIYKCVVYRTGGYRHRYLVLGEATVNVKIFQ | 0.01356 | 
5 | AM4-661: affinity matured CXCR4 i-body, SEQ ID NO: 60 (protein, protein sequence encoding AM4-661) LQVDIVPSQGEISVGESKFFLCQVAGSKSDFRISWFSPNGEKLTPNQQRISVVWNDDSSSTLTIYNANIDDAGIYKCVVYRTGGYRHRYLVLGEATVNVKIFQ | 0.00955 | Ka [2, 3]: 966000 M⁻¹ s⁻¹ and 983000 M⁻¹ s⁻¹; dissociation rate constant (kd) [2, 3]: 9210 M⁻¹ s⁻¹ and 9500 M⁻¹ s⁻¹
6 | AM4-774: affinity matured i-body, CDR1 SEQ ID NO: 83, CDR3 SEQ ID NO: 84 (protein) LQVDIVPSQGEISVGESKFFLCQVAGSKSVIRISWFSPNGEKLTPNQQRISVVWNDDSSSTLTIYNANIDDAGIYKCVVYRTGGYRHRYLVLGEATVNVKIFQ | 0.0105 | 
7 | AM3-32: affinity matured i-body, CDR1 SEQ ID NO: 91, CDR3 SEQ ID NO: 92 (protein) LQVDIVPSQGEISVGESKFFLCQVAGSGSGITISWFSPNGEKLTPNQQRISVVWNDDSSSTLTIYNANIDDAGIYKCVVWRTGVYRHRALVLGEATVNVKIFQ | 0.0136 | 
8 | AM4-613: affinity matured CXCR4 i-body, SEQ ID NO: 52 (protein, protein sequence encoding AM4-613) LQVDIVPSQGEISVGESKFFLCQVAGSKSDVRISWFSPNGEKLTPNQQRISVVWNDDSSSTLTIYNANIDDAGIYKCVVWRTGGYRHRYLVLGEATVNVKIFQ | 0.01236 | Ka [2, 3]: 1.334e+06 M⁻¹ s⁻¹; dissociation rate constant (kd) [2, 3]: 10440 M⁻¹ s⁻¹
9 | AM3-182: affinity matured i-body, CDR1 SEQ ID NO: 99, CDR3 SEQ ID NO: 100 (protein) LQVDIVPSQGEISVGESKFFLCQVAGVGNHIRISWFSPNGEKLTPNQQRISVVWNDDSSSTLTIYNANIDDAGIYKCVVWRAGGYRHRALVLGEATVNVKIFQ | 0.01562 | 
10 | AM4-757: affinity matured i-body, CDR1 SEQ ID NO: 93, CDR3 SEQ ID NO: 94 (protein) LQVDIVPSQGEISVGESKFFLCQVAGSKSAIRISWFSPNGEKLTPNQQRISVVWNDDSSSTLTIYNANIDDAGIYKCVVYRTGSYRHRYLVLGEATVNVKIFQ | 0.01488 | 
11 | AM4-208: affinity matured i-body, CDR1 SEQ ID NO: 85, CDR3 SEQ ID NO: 86 (protein) LQVDIVPSQGEISVGESKFFLCQVAGSKSEIRISWFSPNGEKLTPNQQRISVVWNDDSSSTLTIYNANIDDAGIYKCVVYRTGGYRHRYLVLGEATVNVKIFQ | 0.01283 | 
12 | AM4-203: affinity matured i-body, CDR1 SEQ ID NO: 101, CDR3 SEQ ID NO: 102 (protein) LQVDIVPSQGEISVGESKFFLCQVAGSYGDIRISWFSPNGEKLTPNQQRISVVWNDDSSSTLTIYNANIDDAGIYKCVVYRTGGWRHRYLVLGEATVNVKIFQ | 0.01621 | 
13 | AM4-352: affinity matured i-body, CDR1 SEQ ID NO: 97, CDR3 SEQ ID NO: 98 (protein) LQVDIVPSQGEISVGESKFFLCQVAGSKDDIRISWFSPNGEKLTPNQQRISVVWNDDSSSTLTIYNANIDDAGIYKCVVYRTGGYRHRYLVLGEATVNVKIFQ | 0.0152 | 
14 | AM4-386: affinity matured i-body, CDR1 SEQ ID NO: 95, CDR3 SEQ ID NO: 96 (protein) LQVDIVPSQGEISVGESKFFLCQVAGITSEGHISWFSPNGEKLTPNQQRISVVWNDDSSSTLTIYNANIDDAGIYKCVVETTVFNEVMRLGNGAHVYEATVNVKIFQ | 0.015 | 
